{
  "source": "patent US20190040130A1",
  "about": "(Alector, published 2019)",
  "binders": {"B1": {"name": "AL2p-58 (antibody, V domains shown)", "VH": "QVQLVQSGAEVKKPGASVKVSCKASGYAFSSQWMNWVRQAPGQRLEWIGRIYPGGGDTNYAGKFQGRVTITADTSASTAYMELSSLRSEDTAVYYCARLLRNQPGESYAMDYWGQGTLVTVSS", "VL": "DVVMTQSPDSLAVSLGERATINCRSSQSLVHSNRYTYLHWYQQKPGQSPKLLIYKVSNRFSGVPDRFSGSGSGTDFTLKISRVEAEDVGVYYCSQSTRVPYTFGQGTKLEIK"}, "B2": {"name": "AL2p-h43 (antibody, IgG1, V domains shown)", "VH": "B1 VH with V18L, Q32S, G55D, A61N, K63E, Q65R, G66V, V68A, I70L, Y95F", "VL": "DVVMTQTPLSLSVTPGQPASISCRSSQSLVHSNGYTYLHWYLQKPGQSPQLLIYKVSNRFSGVPDRFSGSGSGTDFTLKISRVEAEDVGVYYCSQSTRVPYTFGQGTKLEIK", "notes": "IgG1; Fab in monovalent BLI"}, "B3": {"name": "AL2p-58 msFc (antibody)", "chain 1": "B1 VH", "chain 2": "B1 VL"}, "B4": {"name": "AL2p-h90 (antibody, IgG1, V domains shown)", "VH": "B1 VH with Q32S, G55D, G62Q", "VL": "DVQMTQSPSSLSASVGDRVTITCRSSQSLVHSNGYTYLHWYQQKPGKSPKLLIYKVSNRFSGVPSRFSGSGSGTDFTLTISSLQPEDFATYYCSQSTRVPYTFGGGTKVEIK", "notes": "IgG1; Fab in monovalent BLI"}, "B5": {"name": "AL2p-60 (antibody, IgG1, V domains shown)", "VH": "B1 VH with A16S, R44G, I48M, G62R, T74E, A76T", "VL": "B2 VL with D1G, G34R, F60R"}, "B6": {"name": "AL2p-59 (antibody, V domains shown)", "VH": "B1 VH with A16S, Q32H, R44G, I48M, G55E, D57Q, G62Q, F64R, T74E, A76T", "VL": "B2 VL with D1G, S25T, G34Q, F60V"}, "B7": {"name": "AL2p huIgG1 E430G (antibody, V domains shown)", "VH": "QVQLQQSGPELVKPGASLKISCKASGYAFSSSWMNWVKQRPGKGLEWIGRIYPGDGDTNYNGEFRVRATLTADTSSTTAYMQLSSLTSEDSAVYFCARLLRNQPGESYAMDYWGQGASVTVSS", "VL": "B2 VL with S12P, T14S, P15L, Q17D, P18Q, Q50K, E86D, V88L, Y92F, Q105G"}, "B8": {"name": "AL2p-h25 (antibody, IgG1, V domains shown)", "VH": "QVQLVQSGAEVKKPGASLKISCKASGYAFSSSWMNWVRQAPGQGLEWIGRIYPGDGDTNYNGEFRVRATLTADTSTSTAYMELSSLRSEDTAVYYCARLLRNQPGESYAMDYWGQGALVTVSS", "VL": "B2 VL with V88L, Y92F", "notes": "IgG1; Fab in monovalent BLI"}, "B9": {"name": "AL2p-h27 (antibody, IgG1, V domains shown)", "VH": "B8 VH with L18V, I20V, Y95F, A117T", "VL": "B2 VL with V88L, Y92F", "notes": "IgG1; Fab in monovalent BLI"}, "B10": {"name": "AL2p-h32 (antibody, IgG1, V domains shown)", "VH": "B8 VH with A16S, L18V, I20V, S77T, Y95F, A117T", "VL": "B2 VL with V88L, Y92F", "notes": "IgG1; Fab in monovalent BLI"}, "B11": {"name": "AL2p-h24 (antibody, IgG1, V domains shown)", "VH": "B8 VH with K12V, G62Q, E63K, R65Q, V66G, Y95F", "VL": "B2 VL with V88L, Y92F", "notes": "IgG1; Fab in monovalent BLI"}},
  "key": {"[1]": {"target": "T1, human TREM2/DAP12 fusion protein in BW5147.G.1.4 NFAT-luciferase reporter cells (human, UniProt O43914 41-113, limits assumed)", "test": "cell-based or functional assay"}, "[2]": {"target": "T2, human TREM2 expressed on cells (human, UniProt Q9NZC2 19-230)", "T2 construct": "also called huT2 BW; cell expressed TREM2", "T2 sequence": "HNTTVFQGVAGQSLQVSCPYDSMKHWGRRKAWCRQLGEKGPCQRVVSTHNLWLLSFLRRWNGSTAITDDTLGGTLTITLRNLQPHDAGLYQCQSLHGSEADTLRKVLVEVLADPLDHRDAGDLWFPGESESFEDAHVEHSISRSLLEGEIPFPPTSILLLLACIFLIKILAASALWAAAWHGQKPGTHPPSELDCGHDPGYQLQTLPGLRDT", "test": "FACS, BW cells", "protocol": "To examine cell binding of anti-TREM2 antibodies, recombinant, human TREM2-expressing BW5147. G.1.4 cells (ATCC® TIB48™) were established by stably expressing either mouse TREM2 or human TREM2 together with Dap12 using viral infection. Cells were harvested by scraping, washed in PBS, counted and plated on 96-well U bottom plates at 1×10⁵ cells/well. The plates were spun at 1,400 rpm for 3 minutes and primary anti-TREM2 or control antibodies were added in FACS buffer (PBS+2% FBS) and incubated on ice for one hour. Cells were subsequently centrifuged as before and washed thrice with FACS buffer. Cells were then incubated with anti-human PE conjugated secondary antibody (BD Biosciences) in FACS buffer for 30 minutes on ice. Cells were again washed thrice with FACS buffer and analyzed on a BD FACS Canto. Binding was measured as mean fluorescence intensity in the […]."}, "[3]": {"target": "T1, human TREM2/DAP12 fusion protein in …", "test": "cell-based or functional assay", "remark": "listed apart in the source"}, "[4]": {"target": "T2, human TREM2 expressed on cells", "test": "cell-based or functional assay"}, "[5]": {"target": "T1, human TREM2/DAP12 fusion protein in …", "test": "cell-based or functional assay", "remark": "listed apart in the source"}},
  "note": "Where a chain is given by its changes, count along the chain named. In names and notes the source's numbering stands.",
  "data": [
    {"binder": "B1", "values": [
      {"measurement": "EC50 (read off the curve); NFAT:luciferase luminescence, BW reporter cells, soluble IgG", "setting": "[1]", "result": "~1", "unit": "µg/mL"}
    ]},
    {"binder": "B2", "values": [
      {"measurement": "Cell binding (FOB)", "setting": "[2]", "result": 91, "unit": "fold over background"}
    ]},
    {"binder": "B3", "values": [
      {"measurement": "EC50 (read off the curve); NFAT:luciferase luminescence, BWZ reporter cells, soluble IgG", "setting": "[3]", "result": "~0.7", "unit": "µg/mL"}
    ]},
    {"binder": "B4", "values": [
      {"measurement": "Cell binding (FOB)", "setting": "[2]", "result": 126, "unit": "fold over background"}
    ]},
    {"binder": "B5", "values": [
      {"measurement": "viability EC50, dendritic cells D558", "setting": "[4]", "result": 0.152, "unit": "nM"},
      {"measurement": "viability EC50, dendritic cells D559", "setting": "[4]", "result": 0.244, "unit": "nM"},
      {"measurement": "viability EC50, dendritic cells D560", "setting": "[4]", "result": 0.178, "unit": "nM"},
      {"measurement": "viability EC50, macrophages D559", "setting": "[4]", "result": 0.194, "unit": "nM"},
      {"measurement": "viability EC50, macrophages D560", "setting": "[4]", "result": 0.154, "unit": "nM"}
    ]},
    {"binder": "B6", "values": [
      {"measurement": "EC50 (read off the curve); NFAT:luciferase luminescence, BW reporter cells, soluble IgG", "setting": "[1]", "result": "~2", "unit": "µg/mL"}
    ]},
    {"binder": "B7", "values": [
      {"measurement": "EC50 (read off the curve); NFAT:luciferase luminescence, BWZ reporter cells co-cultured 1:1 with THP-1 cells, 6 h", "setting": "[5]", "result": "~0.3", "unit": "µg/mL"}
    ]},
    {"binder": "B8", "values": [
      {"measurement": "Cell binding (FOB)", "setting": "[2]", "result": 90, "unit": "fold over background"}
    ]},
    {"binder": "B9", "values": [
      {"measurement": "Cell binding (FOB)", "setting": "[2]", "result": 78, "unit": "fold over background"}
    ]},
    {"binder": "B10", "values": [
      {"measurement": "Cell binding (FOB)", "setting": "[2]", "result": 81, "unit": "fold over background"}
    ]},
    {"binder": "B11", "values": [
      {"measurement": "Cell binding (FOB)", "setting": "[2]", "result": 69, "unit": "fold over background"}
    ]}
  ]
}
